Experiments:
Conditions in all cases: parent: 1; read off a plot
[1] = target: GAP1, endogenous; assay: IgG pulldown of TAP-tagged REH2, western blot quantification
[2] = target: REH2-Associated Factor 1 (^H2F1), endogenous (UniProt Q585P3); assay: IgG pulldown of TAP-tagged H2F1, western blot quantification
[3] = target: GAP1, endogenous; assay: as above
[4] = target: RNA Editing Helicase 2 (REH2), endogenous (UniProt Q581T1); assay: as above
[5] = target: REL1 ligase, endogenous (UniProt P86927); assay: IgG pulldown of TAP-tagged H2F1, self-adenylation reaction quantification

Chain of ^H2F1 wild type with TAP tag (from UniProt Q585P3) Z3 R/K>A (Q585P3 23-524, change not shown): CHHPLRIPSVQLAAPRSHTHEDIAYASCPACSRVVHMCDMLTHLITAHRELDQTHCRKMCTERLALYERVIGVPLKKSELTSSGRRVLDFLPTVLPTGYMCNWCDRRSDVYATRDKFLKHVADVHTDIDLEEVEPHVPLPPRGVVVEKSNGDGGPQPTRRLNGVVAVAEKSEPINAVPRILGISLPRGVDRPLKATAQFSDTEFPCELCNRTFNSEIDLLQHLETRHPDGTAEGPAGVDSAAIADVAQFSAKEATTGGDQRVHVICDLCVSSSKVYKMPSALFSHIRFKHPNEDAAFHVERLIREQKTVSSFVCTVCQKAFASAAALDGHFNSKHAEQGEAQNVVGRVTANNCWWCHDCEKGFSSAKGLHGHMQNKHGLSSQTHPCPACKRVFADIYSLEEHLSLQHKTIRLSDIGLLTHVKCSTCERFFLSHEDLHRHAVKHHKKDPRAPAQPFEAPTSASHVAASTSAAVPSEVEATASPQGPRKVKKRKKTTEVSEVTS
Chain of ^H2F1 wild type with TAP tag (from UniProt Q585P3) Z5 R/K>A (Q585P3 23-524, change not shown): as above
Chain of ^H2F1 wild type with TAP tag (from UniProt Q585P3) Z2 R/K>A (Q585P3 23-524, change not shown): as above
Chain of REH2-Associated Factor 1 (^H2F1), endogenous (Q585P3 23-524): as the sequence (Q585P3 23-524, change not shown) above
Chain of ^H2F1 wild type with TAP tag (from UniProt Q585P3) Z1 R/K>A (Q585P3 23-524, change not shown): as above

Substance | ratio to parent [1] | ratio to parent [2] | ratio to parent [3] | ratio to parent [4] | ratio to parent [5]
RNA Editing Helicase 2 (REH2) wild type with TAP tag (from UniProt Q581T1) H1998E | 0.52 | – | – | – | –
RNA Editing Helicase 2 (REH2) wild type with TAP tag (from UniProt Q581T1) K1078A; A1086D | 0.17 | – | – | – | –
RNA Editing Helicase 2 (REH2) wild type with TAP tag (from UniProt Q581T1) R1979A | 1 | – | – | – | –
RNA Editing Helicase 2 (REH2) wild type with TAP tag (from UniProt Q581T1) R2023A | 0.66 | – | – | – | –
^H2F1 wild type with TAP tag (from UniProt Q585P3) Z1 R/K>A | – | 0.87 | 0.85 | 0.75 | 0.72
^H2F1 wild type with TAP tag (from UniProt Q585P3) Z2 R/K>A | – | 0.83 | 0.95 | 0.78 | 0.83
^H2F1 wild type with TAP tag (from UniProt Q585P3) Z3 R/K>A | – | 1.2 | 1 | 0.85 | 0.62
^H2F1 wild type with TAP tag (from UniProt Q585P3) Z5 R/K>A | – | 1 | 0.99 | 0.97 | 0.77

From paper PMC6488192 (2019)
